Consider 2 molecules from patent US11400139B2, “Anti-NET compounds for treating and preventing fibrosis and for facilitating wound healing” (THE CHILDREN'S MEDICAL CENTER CORPORATION, priority 2015, dated 2022).

One experiment deals with PAD4 expressing cells. Particulars: Subramanian et al.; cited from earlier work.
Experiment [1] relates to neutrophil extracellular traps. As to conditions: Subramanian et al.; cited from earlier work.
Experiment [2] concerns NETs. Particulars: pre-digestion of NETs with DNase 1, in vitro (Farrera and Fadeel); cited from earlier work.
For experiment [3], the system named is NETs. The experiment in a line: Full-thickness excisional skin wound healing with systemic DNase 1 treatment. It counts as in vivo, mouse. On the procedure:
Mice were induced to be diabetic using multiple low dose injections of streptozotocin (STZ). Six to 8-week old male C57BL/6 or PAD4^−/− mice were randomized into treatment groups of either vehicle or STZ according to their blood glucose levels and body weight at baseline. Mice were fasted for 5 hours and then injected with vehicle or STZ (i.p., 50 mg/kg per day, pH 4, dissolved in 0.1 M sodium citrate buffer) for 5 consecutive days. Fed blood glucose level was measured starting 1 week afterwards. Mice with fed blood glucose level above 300 mg/dL were considered diabetic and used for further experiments. Pancreatic islets were stained for insulin using a rabbit polyclonal anti-insulin antibody (1:500, Cell Signaling, Cat. no. 4590).
Full-thickness excisional wounds were made on the dorsal skin under aseptic conditions as described^22. Mice were anesthetized with ketamine and xylazine (100 mg/kg and 10 mg/kg, respectively, i.p.). Hair was removed and the skin was cleaned with 70% ethanol and betadine. A fold of the dorsal skin was then picked up along the midline, placed over dental wax and punched through with a 4-mm disposable sterile biopsy punch (Miltex) such that 2 wounds were generated in one punch. The procedure was repeated, thus 4 wounds were made per mouse. The mice were housed individually after wounding. In experiments involving diabetic mice, all mice were provided ad libitum with antibiotics (2.5% Sulfatrim) in drinking water. Wounds were digitally photographed using a Sony Camcorder and total wound areas were calculated using ImageJ software. Wound area was expressed as a percentage compared to the area on day 0 when the wounds were made.
Neutrophil recruitment and re-epithelialization were examined in H&E-stained sections. Wounds were cut in half, fixed overnight in zinc fixative and embedded in paraffin. The tissue was sectioned at 10 μm and stained with H&E. Images were acquired with the Zeiss Axiovision software using an Axioplan light microscope coupled to a color Zeiss HRc camera.
Normoglycemic and diabetic WT mice, randomized by blood glucose levels before assigning to treatments, were injected with 10 μg i.v. and 50 μg i.p. DNase 1 (dornase alfa, Genentech) 30 min before wounding and then 50 μg i.p. every 12 hours until wound collection on day 3. Control mice were injected with vehicle (8.77 mg/mL sodium chloride and 0.15 mg/mL calcium chloride)^40.

The mark [4] stands for this setting: normoglycemic WT mice, three days post wounding.

“Also recorded” adds a separate entry of the source.

For the molecule `CC(C)(C)n1nnc([C@H](CCCNC(=N)CCl)NC(=O)c2ccc(-c3ccccc3)cc2)n1` [BTT-Cl-amidine, biphenyl tetrazole tert-butyl Cl-amidine], the cell killing entry in the experiment with PAD4 expressing cells is “enhanced cell killing”. The “formation of neutrophil extracellular traps” value in experiment [1] is listed as “blocks the formation”.

B1: DNase 1: DNase 1 (dornase alfa, Genentech), which disrupts NETs (protein, UniProt P24855 23-282, looked up)
Deoxyribonuclease-1: LKIAAFNIQTFGETKMSNATLVSYIVQILSRYDIALVQEVRDSHLTAVGKLLDNLNQDAPDTYHYVVSEPLGRNSYKERYLFVYRPDQVSAVDSYYYDDGCEPCGNDTFNREPAIVRFFSRFTEVREFAIVPLHAAPGDAVAEIDALYDVYLDVQEKWGLEDVMLMGDFNAGCSYVRPSQWSSIRLWTSPTFQWLIPDSADTTATPTHCAYDRIVVAGMLLRGAVVPDSALPFNFQAAYGLSDQLAQAISDHYPVEVMLK
With B1, the “clearance of NETs by macrophages” value in the experiment on NETs [2] was “accelerated their clearance”. For the same molecule, in the experiment on NETs [3] (STZ-induced diabetic WT mice on antibiotics, day 3 post wounding), the enhancement of re-epithelialization is recorded as greater than 75%. Further, the “promotion of wound area reduction” value in the experiment with NETs [3] (STZ-induced diabetic WT mice on antibiotics, day 3 post wounding, 10 μg i.v. and 50 μg i.p. before wounding, then 50 μg i.p. every 12 hours) is listed as greater than 20%. For the same molecule, the “wound healing (wound area reduction and re-epithelialization), in words” value in the experiment on NETs [3] (WT mice, diabetic and normoglycemic) is listed as “accelerated wound healing; also recorded: facilitated wound area reduction”. Also, the “further benefit in wound healing” value with NETs [3] (diabetic PAD4−/− mice, day 3 post wounding) was “did not provide further benefits; also recorded: did not provide additional benefits”. In the experiment on NETs [3] (setting [4]), the enhancement of re-epithelialization was roughly 54%, the “neutrophil recruitment to the wound” value is given as “not affected” and the “wound area versus vehicle” value is “smaller than in those treated with vehicle”.
